Source: the Immune Epitope Database (IEDB)

What was measured:
HLA-A*24:03 = test: IEDB peptide-MHC binding, purified MHC/competitive/fluorescence; filed as Kd, often an IC50 or EC50 that approximates it; ≥ and ≤ were set here for values at or beyond the usual limits of such assays; settings: source organism: Influenza A virus (A/Harbin/1/1988(H1N2))
HLA-A*11:01 = test: IEDB peptide-MHC binding, purified MHC/direct/fluorescence; filed as Kd, often an IC50 or EC50 that approximates it; ≥ and ≤ were set here for values at or beyond the usual limits of such assays
HLA-A*24:02 = test: as above
HLA-A*03:01 = test: as above
HLA-A*69:01 = test: as above
HLA-B*44:02 = test: as above
HLA-A*01:01 = test: as above
HLA-A*02:01 = test: as above
HLA-B*46:01 = test: as above
HLA-B*08:02 = test: as above
HLA-A*31:01 [1] = test: as above
HLA-B*58:01 = test: as above
HLA-B*39:01 [2] = test: as above; settings: source organism: H9N2 subtype Influenza A virus (A/swine/Korea/S83/2004(H9N2))
HLA-B*40:01 = test: as above
HLA-B*27:05 = test: as above
HLA-B*08:01 = test: as above
HLA-B*15:01 [3] = test: as above
HLA-B*07:02 = test: as above
HLA-B*57:01 = test: as above; settings: source organism: Mycobacterium tuberculosis
HLA-A*26:01 = test: as above
HLA-B*51:01 = test: as above; settings: source organism: Mycobacterium tuberculosis
HLA-B*18:01 = test: as above
HLA-B*48:01 = test: as above; settings: source organism: Mycobacterium tuberculosis
HLA-B*15:17 = test: as above; settings: source organism: Mycobacterium tuberculosis
HLA-B*39:01 [4] = test: IEDB peptide-MHC binding, purified MHC/competitive/fluorescence; filed as Kd, often an IC50 or EC50 that approximates it; ≥ and ≤ were set here for values at or beyond the usual limits of such assays; settings: source organism: Parafrankia sp. EAN1pec
HLA-B*15:01 [5] = test: IEDB peptide-MHC binding, purified MHC/competitive/radioactivity; filed as Kd, often an IC50 or EC50 that approximates it; ≥ and ≤ were set here for values at or beyond the usual limits of such assays; settings: source organism: Dengue virus 2 Jamaica/1409/1983
HLA-A*02:03 = test: IEDB peptide-MHC binding, purified MHC/direct/fluorescence; filed as Kd, often an IC50 or EC50 that approximates it; ≥ and ≤ were set here for values at or beyond the usual limits of such assays; settings: source organism: Influenza A virus(A/swine/Henan/5/2004(H9N2))
HLA-B*15:09 = test: as above; settings: source organism: Influenza A virus(A/swine/Henan/5/2004(H9N2))
HLA-A*02:19 = test: as above; settings: source organism: Influenza A virus(A/swine/Henan/5/2004(H9N2))
HLA-A*02:11 = test: as above; settings: source organism: Influenza A virus(A/swine/Henan/5/2004(H9N2))
HLA-A*31:01 [6] = test: IEDB peptide-MHC binding, purified MHC/competitive/fluorescence; filed as Kd, often an IC50 or EC50 that approximates it; ≥ and ≤ were set here for values at or beyond the usual limits of such assays; settings: source organism: Influenza A virus (A/Fort Monmouth/1/1947-mouse adapted(H1N1))
[7] = source organism: H9N2 subtype Influenza A virus (A/swine/Korea/S83/2004(H9N2))
[8] = source organism: Influenza A virus (A/Puerto Rico/8/34/Mount Sinai(H1N1))
[9] = source organism: Mycobacterium tuberculosis
[10] = source organism: Mycobacterium tuberculosis C
[11] = source organism: Influenza A virus (A/chicken/Vietnam/393/2005(H5N1))
[12] = source organism: Influenza A virus(A/swine/Shandong/fNY/2003(H9N2))
[13] = source organism: Influenza A virus (A/swine/Hong Kong/5190/99(H3N2))

Measured: Kd

CYPGYFADY
≤ 0.001 µM: HLA-A*24:03

HFQKDAKVL
10.4 µM: HLA-B*39:01 [2]
2.66 µM: HLA-B*15:01 [3]; [8]
2.3 µM: HLA-B*08:01; [8]
≥ 20 µM: HLA-A*11:01; [7] | HLA-A*24:02; [7] | HLA-A*03:01; [7] | HLA-A*69:01; [7] | HLA-B*44:02; [7] | HLA-A*01:01; [7] | HLA-A*02:01; [7] | HLA-B*46:01; [7] | HLA-B*08:02; source organism: Influenza A virus(A/swine/Shandong/fZC/2003(H9N2)) | HLA-A*31:01 [1]; [7] | HLA-B*58:01; [7] | HLA-B*40:01; [7] | HLA-B*27:05; [7] | HLA-B*07:02; [7]

KPARGGSSI
≥ 20 µM: HLA-B*57:01 | HLA-A*11:01; [9] | HLA-A*03:01; [9] | HLA-A*69:01; [9] | HLA-A*26:01; [10] | HLA-A*01:01; [9] | HLA-A*02:01; [9] | HLA-B*46:01; [9] | HLA-B*08:02; [10] | HLA-A*31:01 [1]; [9] | HLA-B*58:01; [9] | HLA-B*40:01; [9] | HLA-B*18:01; [9] | HLA-B*27:05; [9] | HLA-B*48:01 | HLA-B*15:01 [3]; [9] | HLA-B*15:17
2.76 µM: HLA-B*39:01 [4]
2.62 µM: HLA-B*51:01

QLKGMSYSM
≥ 20 µM: HLA-B*08:02; source organism: Dengue virus 2 Thailand/16681/84
0.0539 µM: HLA-B*15:01 [5]

VLTGNLQTL
≥ 20 µM: HLA-A*11:01; [11] | HLA-A*24:02; [11] | HLA-A*03:01; [11] | HLA-A*69:01; [11] | HLA-A*26:01; [12] | HLA-B*44:02; [11] | HLA-A*01:01; [11] | HLA-B*46:01; [11] | HLA-B*08:02; [12] | HLA-A*31:01 [1]; [11] | HLA-B*58:01; [11] | HLA-B*40:01; [11] | HLA-B*18:01; [11] | HLA-B*27:05; [11] | HLA-B*08:01; [11] | HLA-B*15:01 [3]; [11] | HLA-B*07:02; [11]

YMFESKSMK
0.003 µM: HLA-A*02:11
≥ 20 µM: HLA-A*24:02; [13] | HLA-A*26:01; source organism: Influenza A virus(A/swine/Henan/5/2004(H9N2)) | HLA-B*44:02; [13] | HLA-A*01:01; [13] | HLA-B*15:09 | HLA-A*02:19 | HLA-B*46:01; [13] | HLA-B*58:01; [13] | HLA-B*40:01; [13] | HLA-B*18:01; [13] | HLA-B*15:01 [3]; [13] | HLA-B*07:02; [13]
0.0212 µM: HLA-A*31:01 [6]
0.155 µM: HLA-B*27:05; [8]
0.024 µM: HLA-A*02:03
0.478 µM: HLA-A*02:01; [8]
0.232 µM: HLA-A*03:01; [8]
